# Data published in PMC7835349 (Communications Biology, 2021).
# How the values were obtained:
# [1] = Plasma pharmacokinetics after IV bolus in C.B-17 SCID mouse; assay type: in vivo; details: mouse, at 10 mg/kg or equivalent
# Method: Pharmacokinetic studies were carried out in the female C.B-17 SCID mouse. Either freshly prepared solutions of AZD4320 in 30% hydroxypropyl-β-cyclodextrin or drug-dendrimer conjugates in phosphate buffered saline were injected as a bolus into the tail vein at dosing volume of 5 ml/kg. Blood samples were collected at different time points post dose and analysed as below.
# Blood samples were collected from the jugular vein by venepuncture into K2EDTA (as anticoagulant) tubes. Immediately following collection into the K2EDTA tube the samples were mixed gently and kept on crushed ice until centrifugation. Within 30 mins of blood collection, each sample was centrifuged (1500 g for 10 min at 4 °C) to generate plasma which was kept on wet ice at all times in polypropylene tubes. Duplicate 50 μL aliquots were transferred immediately after centrifugation into uniquely labelled polypropylene tubes (‘released’ AZD4320) containing equivalent amount (50 μL) of 0.2 M citric acid solution, inverted 10 times and then stored in a freezer set to maintain a temperature of −80 °C, until analysis.
# The concentrations of ‘total’ AZD4320 were determined in plasma by overnight incubation with hydrazine followed by protein precipitation with acetonitrile and subsequent liquid/liquid extraction. Liquid chromatography with mass spectrometric detection (LC-MS/MS, details in Supplementary Table 5) was used to quantitate both ‘released’ and ‘total’ AZD4320.
# Sample analyses were performed in batches containing study samples, calibration standards at 10 concentration levels, QC samples at three concentration levels in duplicate and blank samples. The analytical run acceptance criteria for calibration standards and QC samples was that at least 75% of back-calculated concentrations for calibration standards and at least 2/3 of the QC samples (at least 50% at each concentration level) should be within ±20% (±25% at LLOQ) from nominal value.
# telemetered dogs = experiment: Conscious dog telemetry (QRS amplitude and other cardiovascular parameters, tolerability)
# [2] = dog, AZD0466 10 mg/kg (3 mg/kg AZD4320 equivalent), 1 h infusion
# [3] = dog, AZD0466 30 mg/kg (9 mg/kg AZD4320 equivalent), 1 h infusion
# [4] = dog, AZD0466 60 mg/kg (18 mg/kg AZD4320 equivalent), 1 h infusion
substance,measurement,setting,value
AZD4320-MIDA-PEG2100 [AZD0466],"Total Concentration in Plasma as AZD4320, Mean (Fig S9)",[1]; 1 hr,117.3 µg/mL
same,"Total Concentration in Plasma as AZD4320, Mean (Fig S9)",[1]; 3 hr,49.1 µg/mL
same,"Total Concentration in Plasma as AZD4320, Mean (Fig S9)",[1]; 9 hr,36.3 µg/mL
same,"Total Concentration in Plasma as AZD4320, Mean (Fig S9)",[1]; 20 hr,8.0 µg/mL
same,other cardiovascular effects,"telemetered dogs; conscious telemetered dogs, 1-hour infusion","A small increase in diastolic BP, a transient and delayed-onset small increase in heart rate, a decrease in dP/dt+ (an index of cardiac contractility) and a decrease in PR interval"
same,effect on QRS amplitude,"telemetered dogs; conscious telemetered dogs, 1-hour infusion, 30 and 60 mg/kg",dose-dependent decrease in QRS amplitude that returned to baseline
same,"NOEL (no observed effect level), cardiovascular system",telemetered dogs; dog,10 mg/kg
same,improvement in cardiovascular tolerability based on dose vs AZD4320,telemetered dogs; dog,18 fold
same,effect on QRS amplitude,"telemetered dogs; dog, 10 mg/kg AZD0466 (equivalent to 3 mg/kg AZD4320)",no effect on QRS amplitude
same,Effects,telemetered dogs; [2],No effect level
same,Tolerated?,telemetered dogs; [2],Yes
same,Tolerated?,telemetered dogs; [3],Yes
same,↓QRS amplitude (% decrease),telemetered dogs; [3],30%
same,Effects other than QRS amplitude,telemetered dogs; [4],"↑DBP, ↑HR, ↓dP/dt+, ↓PR interval, ↓LVEDP"
same,Tolerated?,telemetered dogs; [4],Yes
same,↓QRS amplitude (% decrease),telemetered dogs; [4],33%
